These results are taken from US20250052758A1 (PIERRE FABRE MEDICAMENT, published 2025).

The test has as its target T1, P-selectin glycoprotein ligand 1 (PSGL-1) expressed by cells (naive human T cells, HL-60 cells, PBMCs) (human, UniProt Q14242 42-412).
T1 construct: also called SELPLG; CD162
T1 sequence: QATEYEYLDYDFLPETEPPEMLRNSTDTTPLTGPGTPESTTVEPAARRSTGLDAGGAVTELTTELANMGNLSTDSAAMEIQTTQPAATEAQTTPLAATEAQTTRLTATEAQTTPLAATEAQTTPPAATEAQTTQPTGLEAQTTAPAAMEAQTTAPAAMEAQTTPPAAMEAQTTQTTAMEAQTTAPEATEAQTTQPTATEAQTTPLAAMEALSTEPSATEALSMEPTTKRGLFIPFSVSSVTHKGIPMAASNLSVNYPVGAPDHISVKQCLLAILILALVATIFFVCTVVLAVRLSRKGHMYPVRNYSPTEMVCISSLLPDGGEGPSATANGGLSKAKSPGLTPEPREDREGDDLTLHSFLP
The experiment in a line: CAPTIREC/TRICEPS ligand-receptor capture on naive human T cells, LC-MS/MS; enrichment against the anti-CD28 antibody control. As for the experimental part:
An overview of the […]™ procedure is outlined in FIG. 1. Briefly, the VISTA-Fc fusion protein and the anti-CD28 antibody were separately coupled with TRICEPS™ Naïve human T cells were isolated from commercially available primary human T cells. The surface glycoproteins of the naïve T cells were selectively oxidized. Ligand binding and receptor coupling to the cell surface of the oxidized naïve T cells was performed. The reacted T cells were then lysed and the resulting lysate was affinity purified for the ligand-receptor protein complexes. The purified proteins where then cleaved by trypsin digestion, thereby releasing receptor peptides. The resulting receptor peptides were analyzed by liquid chromatography-tandem mass spectrometry (LC-MS/MS). […]
The resulting receptor peptides were analyzed by LC-MS/MS on a Thermo LTQ Orbitrap XL spectrometer fitted with an electrospray ion source. The samples were measured in data dependent acquisition mode in a 120 min gradient using a 10 cm C18 packed column. Six individual samples in the […]™ dataset were analyzed with a statistical ANOVA model. […]
Peptide identifications were filtered to an FDR of <=1% and quantified using an MS1-based label-free approach. For the MS1 quantification, the nonlinear DYNAMICS Progenesis QI for proteomics software was used, set to consider all unique peptides. […]

B1: VISTA-Fc fusion protein (Fc fusion)
chain: FKVATPYSLYVCPEGQNVTLTCRLLGPVDKGHDVTFYKTWYRSSRGEVQTCSERRPIRNLTFQDLHLHHGGHQAANTSHDLAQRHGLESASDHHGNFSITMRNLTLLDSGLYCCLVVEIRHHHSEHRVHGAMELQVQTGKDAPSNCVVYPSSSQDSENIRSVECPPCPAPPVAGPSVFLFPPKPKDTLMISRTPEVTCVVVDVSHEDPEVKFNWYVDGVEVHNAKTKPREEQYNSTYRVVSVLTVLHQDWLNGKEYKCKVSNKGLPSSIEKTISKAKGQPREPQVYTLPPSREEMTKNQVSLTCLVKGFYPSDIAVEWESNGQPENNYKTTPPVLDSDGSFFLYSKLTVDKSRWQQGNVFSCSVMHEALHNHYTQKSLSLSPGK
Turning to B1, the “Log2 FC” value was 2.33 log2 fold change.
